pKd: −log10 of the molar value.
What was measured:
Test in all cases: EMSA
[1] = molecular target: ZIF-flex-GAC (linker TG(GSG)5ERP) (artificial) (UniProt P08046); details: all sites approximately 50 pM
[2] = molecular target: ZIF-F4-GAC (TFIIIA finger 4 linker) (artificial) (UniProt P08046); details: apparent Kd
[3] = tested on: ZIF-ZnF-GAC (serine-finger linker) (artificial); details: apparent Kd
[4] = molecular target: ZIF-F4mut-GAC (ZIF-mutF4-GAC; TFIIIA finger 4 flanked by GERP linkers) (artificial) (UniProt P08046); details: apparent Kd
[5] = molecular target: ZIF-mutZnF-GAC (serine finger flanked by NIKICV and TQQLP) (artificial) (UniProt P08046)
3x2F ZGS (artificial) = details: apparent Kd; half-site; hard to quantify
Chain of 3x2F ZGS (artificial) (chain, as listed by the source): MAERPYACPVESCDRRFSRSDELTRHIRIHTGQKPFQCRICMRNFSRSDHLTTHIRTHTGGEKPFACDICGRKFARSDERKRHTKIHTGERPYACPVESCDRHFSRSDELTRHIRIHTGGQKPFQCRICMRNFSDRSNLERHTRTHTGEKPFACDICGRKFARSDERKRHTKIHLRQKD

[6] = molecular target: TF(1-3)-flex-ZIF (linker TG(GSG)5ERP) (artificial) (UniProt P03001+P08046); details: apparent Kd
[7] = tested on: 2x3F ZIF-GAC (artificial); details: apparent Kd; half-site
[8] = tested on: TF(1-4)-ZIF (TFIIIA F1-4 fused to Zif268) (artificial); details: apparent Kd; half-site

Sequence | pKd [1] | pKd [2] | pKd [3] | also measured
GCGGACGCGGCGTGGGCG (double strand) [bsC (123456, ZM)] | 10.30 | 10.96 |  | 
GCGGACGCGNGCGTGGGCG (double strand) [Z1M] | 10.30 | 11.22 | 11.40 | 
GCGGACGCGNNGCGTGGGCG (double strand) [Z2M] | 10.30 | 11.15 | 11.22 | 
GCGGACGCGNNNGCGTGGGCG (double strand) [Z3M] | 10.30 | 11.30 | 11.40 | 
GCGGACGCGNNNNGCGTGGGCG (double strand) [Z4M] | 10.30 | 10.89 | 11.52 | 
GCGGACGCGNNNNNGCGTGGGCG (double strand) [Z5M] | 10.30 | 10.80 | 11.10 | pKd [4]: 10.89; pKd [5]: 10.74
GCGGACGCGNNNNNNGCGTGGGCG (double strand) [Z6M] | 10.30 | 10.77 | 11.15 | pKd [4]: 10.89; pKd [5]: 10.96
GCGGACGCGNNNNNNNGCGTGGGCG (double strand) [Z7M] | 10.30 | 11.30 | 11.52 | 
GCGGACGCGNNNNNNNNGCGTGGGCG (double strand) [Z8M] | 10.30 | 11.30 | 11.22 | 
GCGGACGCGNNNNNNNNNGCGTGGGCG (double strand) [Z9M] | 10.30 | 11.30 | 11.40 | 
GCGGACGCGNNNNNNNNNNGCGTGGGCG (double strand) [Z10M] | 10.30 | 11.40 | 11.52 | 
GCGTGGGCG (double strand) [bsA (ZIF site)] |  |  |  | pKd (3x2F ZGS (artificial)): 6.96; pKd ([6]; half-site): 8.74; pKd [7]: 8.66; pKd ([2]; half-site): 8.66; pKd [8]: 8.70; pKd ([3]; half-site): 8.70
GCGTGGGCGAGTACCTGGATGGGAGAC (double strand) [TF7Z (bsC1)] |  |  |  | pKd [6]: 10.24
GCGTGGGCGGTACCTGGATGGGAGAC (double strand) [TF6Z (bsB1)] |  |  |  | pKd [6]: 10.17
GCGTGGGCGTACCTGGATGGGAGAC (double strand) [TF5Z (bsA1)] |  |  |  | pKd [6]: 10.20
GCGTGGGCGTAGTACCTGGATGGGAGAC (double strand) [TF8Z (bsD1)] |  |  |  | pKd [6]: 10.21
GCGTGGGCGTTAGTACCTGGATGGGAGAC (double strand) [TF9Z (bsE1)] |  |  |  | pKd [6]: 10.24
